Sequences and labels used below:
B1: Flag-tagged WT STAT5 (mouse STAT5a) [mouse] / DUSP4-PD (phosphatase-dead mutant DUSP4, [mouse] (parent)
chain 1: MAGWIQAQQLQGDALRQMQVLYGQHFPIEVRHYLAQWIESQPWDAIDLDNPQDRGQATQLLEGLVQELQKKAEHQVGEDGFLLKIKLGHYATQLQNTYDRCPMELVRCIRHILYNEQRLVREANNCSSPAGVLVDAMSQKHLQINQRFEELRLITQDTENELKKLQQTQEYFIIQYQESLRIQAQFAQLGQLNPQERMSRETALQQKQVSLETWLQREAQTLQQYRVELAEKHQKTLQLLRKQQTIILDDELIQWKRRQQLAGNGGPPEGSLDVLQSWCEKLAEIIWQNRQQIRRAEHLCQQLPIPGPVEEMLAEVNATITDIISALVTSTFIIEKQPPQVLKTQTKFAATVRLLVGGKLNVHMNPPQVKATIISEQQAKSLLKNENTRNECSGEILNNCCVMEYHQATGTLSAHFRNMSLKRIKRADRRGAESVTEEKFTVLFESQFSVGSNELVFQVKTLSLPVVVIVHGSQDHNATATVLWDNAFAEPGRVPFAVPDKVLWPQLCEALNMKFKAEVQSNRGLTKENLVFLAQKLFNISSNHLEDYNSMSVSWSQFNRENLPGWNYTFWQWFDGVMEVLKKHHKPHWNDGAILGFVNKQQAHDLLINKPDGTFLLRFSDSEIGGITIAWKFDSPDRNLWNLKPFTTRDFSIRSLADRLGDLNYLIYVFPDRPKDEVFAKYYTPVLAKAVDGYVKPQIKQVVPEFVNASTDAGASATYMDQAPSPVVCPQPHYNMYPPNPDPVLDQDGEFDLDESMDVARHVEELLRRPMDSLDARLSPPAGLFTSARSSLS
chain 2: MVTMEELREMDCSVLKRLMNRDENGGGGSAGGNGSGSHGALGLLSGGKCLLLDCRPFLAHSAGYIRGSVNVRCNTIVRRRAKGSVSLEQILPAEEEVRARLRSGLYSAVIVYDERSPRAESLREDSTVSLVVQALRRNAERTDICLLKGGYERFSSEYPEFCSKTKALAAIPPPVPPSTNESLDLGCSSCGTPLHDQGGPVEILPFLYLGSAYHAARRDMLDALGITALLNVSSDCPNHFEGHYQYKCIPVEDNHKADISSWFMEAIEYIDAVKDCRGRVLVHSQAGISRSATICLAYLMMKKRVRLEEAFEFVKQRRSIISPNFSFMGQLLQFESQVLTTSCAAEAASPSGPLRERGKATPTPTSQFVFSFPVSVGVHAAPSNLPYLHSPITTSPSC

The test covers variants of B1. As to the kind of experiment: co-IP (anti-Flag IP, IB DUSP4) with band intensity quantification. The conditions noted are these: HEK-293T cells co-transfected for 24 hr, parent: 3.76e+04.
Regarding chain 1 Y694D, the response (band intensity (arbitrary units)) stood at 48300.

For the variant chain 1 Y694F, the response (band intensity (arbitrary units)) was 43700.

Turning to chain 1 Y694E, the response (band intensity (arbitrary units)) worked out at 44800.

The values above are taken from paper PMC4692422.
